B1: RA091 (nucleic acid)
DNA: GGAATACCAGCATCGTCTTGATGCCCTTGGAAGTCCGCGCGTCCTGGATTCGCGGAAACGCGTACATCCAGCTGACGAGTCCCAAATAGGACGAAACGCGC
modifications: expressed or natural sequence
B2: RA095 (nucleic acid)
DNA: GCGCGTCAGAATACCAGCATCGTCTTGATGCCCTTGGAAGTCTCTGGATTCGCGGAAACGCGTACATCCAGCTGACGAGTCCCAAATAGGACGAAACGCGC
modifications: expressed or natural sequence
B3: RA099 (nucleic acid)
DNA: GCGCGTCCTGGATTCGCGGAAACGCGTACATAGTGATACCAGCATCGTCTTGATGCCCTTGGCAGCACTCCAGCTGACGAGTCCCAAATAGGACGAAACGCGC
modifications: expressed or natural sequence
B4: RA009 (nucleic acid)
DNA: GCGCGTCCTGGATTCGCGGAAACGCGTACATCCAGCTGACGAGTCCCAAATAGGACGACCGGAATACCAGCATCGTCTTGATGCCCTTGGAAGTCCGGAACGCGC
modifications: expressed or natural sequence
B5: RA092 (nucleic acid)
DNA: GCGCGTCCTGGATTCGCGGAAACGCGTACATCCAGCTGACGAGTCCCAAATAGGACCGGAATACCAGCATCGTCTTGATGCCCTTGGAAGTCCGGCGAAACGCGC
modifications: expressed or natural sequence
B6: RA093 (nucleic acid)
DNA: AGTGATACCAGCATCGTCTTGATGCCCTTGGCAGCACTGCGCGTCCTGGATTCGCGGAAACGCGTACATCCAGCTGACGAGTCCCAAATAGGACGAAACGCGC
modifications: expressed or natural sequence
B7: RA094 (nucleic acid)
DNA: GCGCGTCCTGGATTCGCGGAGGAATACCAGCATCGTCTTGATGCCCTTGGAAGTCCAACGCGTACATCCAGCTGACGAGTCCCAAATAGGACGAAACGCGC
modifications: expressed or natural sequence
B8: RA098 (nucleic acid)
DNA: GCGCGTCCTGGATTCGCGGAAACGCGTACATCCCCGGAATACCAGCATCGTCTTGATGCCCTTGGAAGTCCGGAGCTGACGAGTCCCAAATAGGACGAAACGCGC
modifications: expressed or natural sequence
B9: RA090 (nucleic acid)
DNA: GCGCGTCCTGGAAGTGATACCAGCATCGTCTTGATGCCCTTGGCAGCACTTTCGCGGAAACGCGTACATCCAGCTGACGAGTCCCAAATAGGACGAAACGCGC
modifications: expressed or natural sequence
B10: RA096 (nucleic acid)
DNA: GCGCGTCAGTGATACCAGCATCGTCTTGATGCCCTTGGCAGCACTCTGGATTCGCGGAAACGCGTACATCCAGCTGACGAGTCCCAAATAGGACGAAACGCGC
modifications: expressed or natural sequence
B11: RA097 (nucleic acid)
DNA: GCGCGTCCTGGATTCGCGGAAACGCGTACATCCAGCTGACGAGTCCCAGAATACCAGCATCGTCTTGATGCCCTTGGAAGTCTAAATAGGACGAAACGCGC
modifications: expressed or natural sequence

The molecules below were run on Renilla luciferase RNA (assay: Barcoded aptazyme variant library screen: un-cleaved Renilla luciferase RNA by barcode read counts, HEK293-T cells). Details: un-cleaved Renilla luciferase RNA, HEK293-T cells cultured with 1 mM theophylline (ON) over without theophylline (OFF); barcode read counts, triplicate.
Type: cell-based
Outline: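 Barcode sequencing of cDNA versus DNA, normalized per aptazyme, gave the un-cleaved Renilla luciferase RNA fraction and fold-change with versus without theophylline (triplicates). Library: T3H48 ribozyme with one of seven theophylline aptamer variants inserted at each position, placed in the Renilla 3′ UTR of a dual-luciferase vector.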

Point of comparison: B7, “Fold change in RNA expression between the ON state and the OFF state” value 1.6 fold. Against it:
- B1 — the same, 1.6 fold
- B2 — the same, 1.6 fold
- B3 — the same, 1.6 fold
- B4 — higher, 3.8 fold
- B5 — the same, 1.6 fold
- B6 — the same, 1.6 fold
- B8 — the same, 1.6 fold
- B9 — higher, 1.7 fold
- B10 — the same, 1.6 fold
- B11 — the same, 1.6 fold

Source: US20260167959A1, “APTAZYME-BASED REGULATABLE GENE EXPRESSION SYSTEMS” (REJUVENATE BIO INC, priority 2022, published 2026)
